According to patent US20250026839A1 (OSE IMMUNOTHERAPEUTICS, published 2025):

Legend:
[1] = target: Recombinant human TRIM21 protein, TRIM21-his (Sinobiological #18010-H07B) (human) (UniProt P19474); test: competition ELISA, TRIM21-his coated, antibody in excess (20 µg/ml), competitor biotinylated Fc-CLEC1 in dose response
[2] = target: Recombinant human TRIM21 protein, TRIM21-his (Sinobiological #18010-H07B) (human) (UniProt P19474); test: antagonist assay of FIG. 6A against a control antibody; format not stated; competitor CLEC-1
[3] = target: T1, Recombinant human TRIM21 protein, TRIM21-his (Sinobiological #18010-H07B) (human, UniProt P19474 1-475); test: ELISA, TRIM21-his coated, biotinylated His-CLEC1 in dose response, streptavidin-peroxidase
T1 construct: Bought, produced in baculovirus; coated on ELISA plates or immobilised on a CM5 chip; not shown: his tag

[4] = target: T1, Recombinant human TRIM21 protein, …; test: ELISA, TRIM21-his coated, biotinylated Fc in dose response (FIG. 4A)
Text: (§1) Plate was saturated with superblock buffer (#37515, Thermofisher).

[5] = target: T2, endogenous TRIM21 from whole cell extracts (RAJI, MoDC, HPB-ALL cells) (human, UniProt P19474 1-475); test: co-immunoprecipitation from RAJI whole cell extract, anti-TRIM21 Western blot (FIG. 3A); supernatant not depleted of TRIM21 (FIG. 3B)
T2 construct: Endogenous cellular protein of human cell lines and monocyte derived dendritic cells, not a recombinant construct; also called TRIM21 E3 Ubiquitin-protein Ligase; cellular endogenous TRIM-21
Text: FIG. 3: Co-immunoprecipitation of TRIM21 with CLEC-1A.
The experiment was repeated using Monocyte derived Dendritic Cells (MoDC) protein extracts as starting endogenous protein mix.

[6] = target: T1, Recombinant human TRIM21 protein, …; test: ELISA, TRIM21-his coated, biotinylated Fc-CLEC1 in dose response, streptavidin-peroxidase
Text: as §1

Chain of Recombinant human TRIM21 protein, TRIM21-his (Sinobiological #18010-H07B) (human) (P19474 whole entry): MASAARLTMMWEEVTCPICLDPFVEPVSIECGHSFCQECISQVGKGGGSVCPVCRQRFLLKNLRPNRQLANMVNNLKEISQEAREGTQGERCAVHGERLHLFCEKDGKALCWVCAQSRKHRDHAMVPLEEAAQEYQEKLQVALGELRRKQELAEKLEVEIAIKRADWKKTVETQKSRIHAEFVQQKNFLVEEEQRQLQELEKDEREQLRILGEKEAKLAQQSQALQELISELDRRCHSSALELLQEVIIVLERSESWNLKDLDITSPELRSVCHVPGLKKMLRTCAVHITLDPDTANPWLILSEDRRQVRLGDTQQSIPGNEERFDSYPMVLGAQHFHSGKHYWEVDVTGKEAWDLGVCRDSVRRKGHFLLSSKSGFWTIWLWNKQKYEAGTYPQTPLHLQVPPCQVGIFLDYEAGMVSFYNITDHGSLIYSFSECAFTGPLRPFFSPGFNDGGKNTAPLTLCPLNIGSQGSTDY
T1 sequence (P19474 whole entry): as above
T2 sequence (P19474 whole entry): as above

| Molecule | percent decrease of the Fc-CLEC1/TRIM21 interaction [1] [%] | further results |
| --- | --- | --- |
| anti-TRIM21 antibody PA5-18147 (Fisher) | 50 |  |
| anti-TRIM21 antibody Fisher PA5-22295 |  | percent reduction of the binding between CLEC-1 and TRIM21 [2]: 65% |
| anti-TRIM21 antibody MAB62191 (Biotechne) | 50 |  |
| anti-TRIM21 antibody PA5-22294 (Fisher / Invitrogen) | 50 |  |
| His-CLEC1 (Biotechne #1704-CL) (receptor, biotinylated in the ELISA experiments (sites not given), Bought recombinant protein produced in NS0 cells; also called His-CLEC1A; His-CLEC-1A; not shown: His tag) QYYQLSNTGQDTISQMEERLGNTSQELQSLQVQNIKLAGSLQHVAEKLCRELYNKAGAHRCSPCTEQWKWHGDNCYQFYKDSKSWEDCKYFCLSENSTMLKINKQEDLEFAASQSYSEFFYSYWTGLLRPDSGKAWLWMDGTPFTSELFHIIIDVTSPRSRDCVAILNGMIFSKDCKELKRCVCERRAGMVKPESLHVPPETLGEGD |  | EC50 [3]: 13 µg/mL |
| Fc only (human IgG1-E3 Fc control) (other, UniProt P01857-1 104-330, looked up, biotinylated in the ELISA (sites not given), domain: Fc; also called Fc alone; Fc-biot control) DKTHTCPPCPAPPVAGGPSVFLFPPKPKDTLMISRTPEVTCVVVDVSHEDPEVKFNWYVDGVEVHNAKTKPREEQYNSTYRVVSVLTVLHQDWLNGKEYKCKVSNKGLPSSIEKTISKAKGQPREPQVYTLPPSRDELTKNQVSLTCLVKGFYPSDIAVEWESNGQPENNYKTTPPVLDSDGSFFLYSKLTVDKSRWQQGNVFSCSVMHEALHNHYTQKSLSLSPGK |  | binding result [4]: no binding (tested: 30 µg/ml); binding result [5]: no binding |
| Soluble Clec1-human IgG Fc chimera (Fc-Clec-1) (Fc fusion, biotinylated in the ELISA experiments (sites not given), domain: Fc; also called Fc-CLEC-1A; Fc-CLEC1A) DKTHTCPPCPAPPVAGGPSVFLFPPKPKDTLMISRTPEVTCVVVDVSHEDPEVKFNWYVDGVEVHNAKTKPREEQYNSTYRVVSVLTVLHQDWLNGKEYKCKVSNKGLPSSIEKTISKAKGQPREPQVYTLPPSRDELTKNQVSLTCLVKGFYPSDIAVEWESNGQPENNYKTTPPVLDSDGSFFLYSKLTVDKSRWQQGNVFSCSVMHEALHNHYTQKSLSLSPGKQYYQLSNTGQDTISQMEERLGNTSQELQSLQVQNIKLAGSLQHVAEKLCRELYNKAGAHRCSPCTEQWKWHGDNCYQFYKDSKSWEDCKYFCLSENSTMLKINKQEDLEFAASQSYSEFFYSYWTGLLRPDSGKAWLWMDGTPFTSELFHIIIDVTSPRSRDCVAILNGMIFSKDCKELKRCVCERRAGMVKPESLHVPPETLGEGD |  | EC50 [6]: 15 µg/mL |

More lines, main results first:

| percent decrease of the Fc-CLEC1/TRIM21 interaction [1] [%] | Molecule | further results |
| --- | --- | --- |
| 50 | anti-TRIM21 antibody sc-25351 (Santacruz) |  |
| 50 | anti-TRIM21 antibody MAB6219 (Biotechne) |  |
